# Measurements as given in patent US20170088600A1 (published 2017).
# Like-named read-outs stand apart in the source and are kept apart here.
# T1: TRAIL-R2-Fc M152A/R154A/K155A (human, UniProt O14763 58-184)
# T1 chain: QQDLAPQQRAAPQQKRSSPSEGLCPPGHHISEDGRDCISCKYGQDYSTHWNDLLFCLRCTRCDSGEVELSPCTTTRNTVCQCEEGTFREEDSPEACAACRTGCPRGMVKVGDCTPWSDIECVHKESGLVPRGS
# Assays:
# Test in all cases: SPR
# UL141 [1] = biological target: UL141
# UL141 [2] = biological target: UL141; remark: listed apart in the source
# UL141 [3] = biological target: UL141; remark: listed apart in the source
# UL141 [4] = biological target: UL141; remark: listed apart in the source
# [5] = biological target: T1, TRAIL-R2-Fc M152A/R154A/K155A
binder,measurement,setting,value
TRAIL-R2-Fc F112A (Fc fusion) QQDLAPQQRAAPQQKRSSPSEGLCPPGHHISEDGRDCISCKYGQDYSTHWNDLLACLRCTRCDSGEVELSPCTTTRNTVCQCEEGTFREEDSPEMCRKCRTGCPRGMVKVGDCTPWSDIECVHKESGLVPRGS,Kd,UL141 [1],630 nM
TRAIL-R2-Fc L110A/L114A (Fc fusion) QQDLAPQQRAAPQQKRSSPSEGLCPPGHHISEDGRDCISCKYGQDYSTHWNDALFCARCTRCDSGEVELSPCTTTRNTVCQCEEGTFREEDSPEMCRKCRTGCPRGMVKVGDCTPWSDIECVHKESGLVPRGS,Kd,UL141 [1],43 nM
TRAIL-R2-Fc M152A (Fc fusion) QQDLAPQQRAAPQQKRSSPSEGLCPPGHHISEDGRDCISCKYGQDYSTHWNDLLFCLRCTRCDSGEVELSPCTTTRNTVCQCEEGTFREEDSPEACRKCRTGCPRGMVKVGDCTPWSDIECVHKESGLVPRGS,Kd,UL141 [2],7 nM
"TRAIL-R2-Fc (human TRAIL-R2 aa 58-184, thrombin site, human IgG1 Fc), wild type (Fc fusion) QQDLAPQQRAAPQQKRSSPSEGLCPPGHHISEDGRDCISCKYGQDYSTHWNDLLFCLRCTRCDSGEVELSPCTTTRNTVCQCEEGTFREEDSPEMCRKCRTGCPRGMVKVGDCTPWSDIECVHKESGLVPRGS",Kd,UL141 [1],6 nM
same,Kd,UL141 [3],5.96 nM
TRAIL-R2-Fc P150A (Fc fusion) QQDLAPQQRAAPQQKRSSPSEGLCPPGHHISEDGRDCISCKYGQDYSTHWNDLLFCLRCTRCDSGEVELSPCTTTRNTVCQCEEGTFREEDSAEMCRKCRTGCPRGMVKVGDCTPWSDIECVHKESGLVPRGS,Kd,UL141 [1],8 nM
TRAIL-R2-Fc D148A (Fc fusion) QQDLAPQQRAAPQQKRSSPSEGLCPPGHHISEDGRDCISCKYGQDYSTHWNDLLFCLRCTRCDSGEVELSPCTTTRNTVCQCEEGTFREEASPEMCRKCRTGCPRGMVKVGDCTPWSDIECVHKESGLVPRGS,Kd,UL141 [1],55 nM
TRAIL-R2-Fc K155A (Fc fusion) QQDLAPQQRAAPQQKRSSPSEGLCPPGHHISEDGRDCISCKYGQDYSTHWNDLLFCLRCTRCDSGEVELSPCTTTRNTVCQCEEGTFREEDSPEMCRACRTGCPRGMVKVGDCTPWSDIECVHKESGLVPRGS,Kd,UL141 [2],8 nM
TRAIL-R2-Fc V167A (Fc fusion) QQDLAPQQRAAPQQKRSSPSEGLCPPGHHISEDGRDCISCKYGQDYSTHWNDLLFCLRCTRCDSGEVELSPCTTTRNTVCQCEEGTFREEDSPEMCRKCRTGCPRGMVKAGDCTPWSDIECVHKESGLVPRGS,Kd,UL141 [1],15 nM
TRAIL-R2-Fc R154A (Fc fusion) QQDLAPQQRAAPQQKRSSPSEGLCPPGHHISEDGRDCISCKYGQDYSTHWNDLLFCLRCTRCDSGEVELSPCTTTRNTVCQCEEGTFREEDSPEMCAKCRTGCPRGMVKVGDCTPWSDIECVHKESGLVPRGS,Kd,UL141 [2],6 nM
TRAIL-R2-Fc E78A/D109A (Fc fusion) QQDLAPQQRAAPQQKRSSPSAGLCPPGHHISEDGRDCISCKYGQDYSTHWNALLFCLRCTRCDSGEVELSPCTTTRNTVCQCEEGTFREEDSPEMCRKCRTGCPRGMVKVGDCTPWSDIECVHKESGLVPRGS,Kd,UL141 [4],60 nM
TRAIL (TNFSF10) ectodomain (ligand) TNELKQMQDKYSKSGIACFLKEDDSYWDPNDEESMNSPCWQVKWQLRQLVRKMILRTSEETISTVQEKQQNISPLVRERGPQRVAAHITGTRGRSNTLSSPNSKNEKALGRKINSWESSRSGHSFLSNLHLRNGELVIHEKGFYYIYSQTYFRFQEEIKENTKNDKQMVQYIYKYTSYPDPILLMKSARNSCWSKDAEYGLYSIYQGGIFELKENDRIFVSVTNEHLIDMDHEASFFGAFLVG,Kd,[5],7 nM
